Assays:
Test in all cases: negative-stain EM
[1] = target: H2/1 GCN4 (SG57 head, PR8 stalk, GCN4-trimerized) (influenza A virus A/Puerto Rico/8/34/Mount Sinai(H1N1) | influenza A virus A/Singapore/1/1957(H2N2))
[2] = target: H5/1 GCN4 (IN05 head, PR8 stalk, GCN4-trimerized) (influenza A virus A/Puerto Rico/8/34/Mount Sinai(H1N1) | influenza A virus A/Indonesia/5/2005(H5N1))
[3] = target: H5 GCN4 (IN05 HA, GCN4-trimerized) (influenza A virus A/Indonesia/5/2005(H5N1))

H2/1 GCN4 (SG57 head, PR8 stalk, GCN4-trimerized) (domain or fragment)
stoichiometry N [1]: 3

H5/1 GCN4 (IN05 head, PR8 stalk, GCN4-trimerized) (domain or fragment)
stoichiometry N [2]: 3

H5 GCN4 (IN05 HA, GCN4-trimerized) (domain or fragment)
stoichiometry N [3]: 3

Source: publication PMC10998906
